The text below walks through data of patent publication US20220249679A1 (Mitsubishi Tanabe Pharma Corporation, priority 2018, published 2022).

The target of one test is T1, Human CD138 His (Homo sapiens, UniProt P18827).
T1 construct: His
T1 sequence (P18827 23-310): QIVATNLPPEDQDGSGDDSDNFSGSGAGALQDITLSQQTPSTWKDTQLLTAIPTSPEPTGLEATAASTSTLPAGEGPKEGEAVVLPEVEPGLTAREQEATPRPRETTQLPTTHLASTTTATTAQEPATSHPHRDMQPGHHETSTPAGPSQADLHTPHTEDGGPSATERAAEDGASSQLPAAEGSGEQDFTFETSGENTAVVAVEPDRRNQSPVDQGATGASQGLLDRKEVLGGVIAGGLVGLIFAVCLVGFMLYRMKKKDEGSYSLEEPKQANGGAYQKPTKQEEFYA
Description: SPR kinetic binding, human CD138. The conditions noted are these: bivalent analyte fit. As for the experimental part: Murine IgGs were purified from the hybridoma supernatants and the IgGs were subject to SPR (surface plasmon resonance) for kinetic binding measurements. Human or mouse CD138 His was immobilized on a GLM chip at […] on a BioRad Proteon. […] KDs were measured using bivalent analyte fit.
A general note: SPR reads the build-up and loss of mass on a sensor chip optically.

The next test concerns the target T2, human CD138 (Homo sapiens, UniProt P18827).
T2 sequence (P18827 23-310): T1 sequence (P18827 23-310)
Description: FACS binding to Expi293 cells transfected with human CD138. The conditions noted are these: 3-fold dilutions from 33.3 μg/mL. As for the experimental part:
(§1) 12P16F6 hIgG1 or 13P30A7 hIgG1 were tested for cross-reactivity to cynomolgus monkey CD138. Antibodies that cross-react with CD138 from cynomolgus monkey (cyno) have an advantage that they can be tested for toxicity in this strain of non-human primate prior to conducting efficacy trials. Briefly, a vector directing the cell-surface expression of human CD138 or cyno CD138 was transfected in Expi293 cells. Binding of 12P16F6 hIgG1 and 13P30A7 hIgG1 to transfected Expi293 cells was tested at 3-fold dilutions starting at 33.3 μg/mL.
(In flow cytometry, cells or beads pass a laser one at a time.)

The next test has as its system cyno CD138. Description: FACS binding to Expi293 cells transfected with cyno CD138. The arrangement: species or system cynomolgus monkey. Particulars: 3-fold dilutions from 33.3 μg/mL. As for the experimental part:
as §1

Numbering of substitutions follows the chain as printed.

Sequence of cyno CD138 (as listed by the source): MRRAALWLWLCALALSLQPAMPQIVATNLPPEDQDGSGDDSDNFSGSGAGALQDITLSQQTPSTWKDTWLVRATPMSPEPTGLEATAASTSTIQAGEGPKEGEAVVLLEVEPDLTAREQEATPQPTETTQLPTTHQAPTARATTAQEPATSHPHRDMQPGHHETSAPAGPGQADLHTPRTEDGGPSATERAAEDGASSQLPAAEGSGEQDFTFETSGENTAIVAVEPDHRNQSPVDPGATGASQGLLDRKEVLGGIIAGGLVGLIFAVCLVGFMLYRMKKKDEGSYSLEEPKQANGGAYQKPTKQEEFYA

B1: F11AP11E5: murine anti-CD138 hybridoma antibody; VH SEQ ID NO:87, VL SEQ ID NO:39 (antibody, listed as Mus musculus, V domains shown)
VH: QVQLQQSGAELVKPGASVKLSCKASGYTFTNYYMYWVKQRPGQGLEWIGEINPGNGGTNFNEKFKNKATLTVDKSSSTAYMQLSSLTSEDSAVYYCTTRFAYWGQGTLVIVSA
VL: DVVMTQTPLSLSVTIGQPASISCKSGQSLLYSNGKTYLTWLQQRPGQAPKLLMYQVSKLDPGIPDRFSGSGSETDFTLKISRVEAEDLGVYYCLQNTYYPHTFGAGTKLELKR
In the case of B1, in the test with Human CD138 His, the “hCD138 ka” value was determined as 128000 M⁻¹ s⁻¹ and the “hCD138 kd” value turned out to be 0.0117 s⁻¹.

B2: 13P30A7 hIgG1: chimeric antibody: murine variable regions of F13P30A7 (SEQ ID NO:83, 35), constant regions of human IgG1, kappa (antibody, listed as Mus musculus, V domains shown)
VH: EVQLVESGGGLVQPKGSLKLSCAASGFTFNTYAMNWVRQAPGKGLEWIARIRSKSNNYATYYADSVKDRFTISRDDSQSLLYLQMNNLKTEDTAIFYCVTDYGYVYFDAWGAGTTVTVSS
VL: NIIMTQSPKSMAMSVGERVTLSCKASENVGNYVSWYQQKPEQSPKLLIYGASYRYTGVPDRFTGSGSGTDFTLTISSVQAEDLADYHCGQSSRYPLTFGAGTKLELKR
modifications: human IgG1 and kappa constant regions
With B2, the “binding to human CD138 expressing cells” value in the test with human CD138 is listed as “specific binding”. For the same molecule, in the test on cyno CD138, the “binding to cynomolgus CD138 expressing cells” value is reported as “specific binding”.

B3: F13P18D8: murine anti-CD138 hybridoma antibody; VH SEQ ID NO:84, VL SEQ ID NO:36 (antibody, listed as Mus musculus, V domains shown)
VH: B2 VH with V5L, K15E, T28A, I48L, S79G, L80M, I95M, F96Y, G103Y, A109V
VL: B2 VL with I3V, A12S, N31T, P40S, E41D, Y53N, G68A, S76T, A80S
Turning to B3, in the test with Human CD138 His, the “hCD138 ka” value was determined as 278000 M⁻¹ s⁻¹ and the “hCD138 kd” value turned out to be 0.000523 s⁻¹.

B4: F13P14D3: murine anti-CD138 hybridoma antibody; VH SEQ ID NO:86, VL SEQ ID NO:38 (antibody, listed as Mus musculus, V domains shown)
VH: B2 VH with A24T, I48V, A63V, L80T, L81V, Y82H, F96Y, Y104H, A109V
VL: B2 VL with I3V, A12S, E17Q, N31S, Y53N, Y55N, G68A, A100G
Regarding B4, in the test with Human CD138 His, the “hCD138 ka” value came out at 107000 M⁻¹ s⁻¹ and the “hCD138 kd” value stood at 0.00104 s⁻¹.

B5: F13P30A7: murine anti-CD138 hybridoma antibody; VH SEQ ID NO:83, VL SEQ ID NO:35 (antibody, listed as Mus musculus, V domains shown)
VH: B2 VH
VL: B2 VL
Take B5: in the test with Human CD138 His, the “hCD138 ka” value came to 238000 M⁻¹ s⁻¹ and the “hCD138 kd” value was determined as 0.00127 s⁻¹.
